In PMC6053351 (2017):

Columns and labels:
Assay in all cases: ITC
[1] = molecular target: RBBP4, full-length, wild type (UniProt Q09028 1-425)
[2] = molecular target: RBBP4 Glu126Ala/Asn128Ala/Glu179Ala (UniProt Q09028 1-425, Glu126Ala | Asn128Ala | Glu179Ala)
[3] = molecular target: RBBP4 Glu231Ala (UniProt Q09028 1-425, Glu231Ala)
RBBP4 Glu231Ala, sequence (Q09028 whole entry E231A): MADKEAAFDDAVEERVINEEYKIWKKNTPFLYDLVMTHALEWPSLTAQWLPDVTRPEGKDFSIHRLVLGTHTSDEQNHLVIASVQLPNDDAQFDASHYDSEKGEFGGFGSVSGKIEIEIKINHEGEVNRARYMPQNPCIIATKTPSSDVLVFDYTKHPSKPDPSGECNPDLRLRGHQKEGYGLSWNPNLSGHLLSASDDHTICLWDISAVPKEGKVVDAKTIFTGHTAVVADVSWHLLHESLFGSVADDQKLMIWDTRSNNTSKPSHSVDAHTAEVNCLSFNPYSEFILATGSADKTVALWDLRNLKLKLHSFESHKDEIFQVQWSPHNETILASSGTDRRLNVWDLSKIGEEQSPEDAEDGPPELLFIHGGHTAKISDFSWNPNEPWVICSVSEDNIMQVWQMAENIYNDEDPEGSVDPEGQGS

RBBP4 Glu126Ala/Asn128Ala/Glu179Ala, sequence (Q09028 whole entry E126A/N128A/E179A): as the sequence (Q09028 whole entry E231A) above, with E126A, N128A, E179A, A231E counted along it
RBBP4, full-length, wild type, sequence (Q09028 whole entry): as the sequence (Q09028 whole entry E231A) above, with A231E counted along it

Binder	Kd [1] [µM]	Kd [2] [µM]	Kd [3] [µM]
KARALKNKRRRS [AEBP2_(379–390) peptide with mutations Arg380Ala/Lys382Ala]	178	–	–
KRRKLKNKRRRS [AEBP2_(379–390) peptide (RRK-rich motif, residues Lys379–Ser390)]	–	56.8	38.5
